Data set [1] deals with T1, C-C chemokine receptor type 5 (CCR5) (Homo sapiens, UniProt P51681 P51681:1-352). As to the kind of experiment: cell_activity; HIV-1 R5 JR-FL p24 day 3; day 5 142.6 ± 41.3, day 7 79.3 ± 21.6; siRNA also contributes. The conditions noted are these: tags: endogenous on primary PBMC-CD4+ cells; label: Cy3 on aptamer-sense strand, Cy5 on antisense strand; aptamer with UU linker and siRNA duplex, 2-nt 3' overhang.

For data set [2], the target named is T1, C-C chemokine receptor type 5 (CCR5). As to the kind of experiment: cell_activity; HIV-1 R5 JR-FL p24 day 3; day 5 232.6 ± 38.3, day 7 170.4 ± 47.0; X4 strains IIIB and NL4-3 not inhibited. Conditions: tags: endogenous on primary PBMC-CD4+ cells. The protocol:
(§1) PBMCs were freshly isolated from healthy donors and CD8 cells were depleted as described above. After culture for 3 days in the activated T-cell culture medium containing interleukin-2, the cell-surface CCR5 level of PBMCs was detected by flow cytometry as described previously. HIV-1 protection assay was performed in 24-well tissue culture plates. Duplicate night-point dilution series of experimental RNAs were prepared and refolded in refolding buffer. PBMCs were washed once with pre-warmed PBS, and 4×10^5 PBMCs were seeded to each well of assay plates. Subsequently, experimental RNAs with different concentrations were added. Plates were incubated for 4-6 hours at 37° C. in a humidified 5% CO_2 incubator. Various viruses (R5 strains: JR-FL, Bal, MOI=0.01; or X4 strains: IIIB, NL4-3, MOI=0.001) were added into each well. After 24 hours incubation, the cells were gently washed with pre-warmed PBS to eliminate free viruses and were incubated sequentially at 37° C. in a humidified 5% CO_2 incubator.
(§2) The $IC50$ value of G-3 aptamer was indicated here. G-3 aptamers with different concentrations were incubated with primary PBMCs. After 4-6 hours incubation, various viruses (R5 strains: JR-FL, Bal; or X4 strains: IIIB, NL4-3) were added into each well. The culture supernatants were collected at different time points after infection for HIV-1 p24 antigen ELISA assay. […]

The target is the same in data set [3]. As to the kind of experiment: cell_activity; HIV-1 R5 BaL p24 day 3; day 5 245.5 ± 35.76, day 7 243.2 ± 46.16. The conditions noted are these: tags: endogenous on in vivo generated human CD4+ T cells.
The target is the same in data set [4]. Put plainly: flow; apparent Kd, live cells, RT 30 min, DPBS with 1 mM Ca2+/1 mM Mg2+ and tRNA; R2 0.95; reduced by CCR5 siRNA knockdown; no binding to CCR5-negative U373-Magi. The conditions noted are these: tags: U373-Magi-CCR5E cells. The protocol: Adherent cell lines (U373-Magi cells and U373-Magi-CCR5E cells) were washed with pre-warmed PBS and detached with Cell stripper. Suspension cell lines (CEM-NKr cells, CEM-NKr-CCR5 cells, and PBMCs) were washed twice with pre-warmed PBS. After counting the cells' number, the desired number of cells was resuspended in 100 µL binding buffer containing Cy3-labeled experimental RNA aptamers at different concentrations as shown. After incubation at room temperature for 30 min, cells were washed three times with 500 µL of pre-warmed binding buffer, and finally resuspended in 350 µL of DPBS for flow cytometry analysis (Flow cytometry core, City of Hope, CA). The dissociation constants were calculated using nonliner curve regression with a Graph Pad Prism 6.0.

Data set [5] shares this target. Put plainly: cell_activity; HIV-1 R5 JR-FL p24 day 3; day 5 58.51 ± 11.22, day 7 17.09 ± 5.90; X4 NL4-3 not converged. The conditions noted are these: tags: endogenous on in vivo generated human CD4+ T cells.
The target is the same in data set [6]. Put plainly: cell_activity; HIV-1 R5 BaL p24 day 3; day 5 354.3 ± 113.3, day 7 >1000. The conditions noted are these: tags: endogenous on primary PBMC-CD4+ cells. The protocol:
as §1, §2

T1 sequence (P51681 whole entry, one chain of several): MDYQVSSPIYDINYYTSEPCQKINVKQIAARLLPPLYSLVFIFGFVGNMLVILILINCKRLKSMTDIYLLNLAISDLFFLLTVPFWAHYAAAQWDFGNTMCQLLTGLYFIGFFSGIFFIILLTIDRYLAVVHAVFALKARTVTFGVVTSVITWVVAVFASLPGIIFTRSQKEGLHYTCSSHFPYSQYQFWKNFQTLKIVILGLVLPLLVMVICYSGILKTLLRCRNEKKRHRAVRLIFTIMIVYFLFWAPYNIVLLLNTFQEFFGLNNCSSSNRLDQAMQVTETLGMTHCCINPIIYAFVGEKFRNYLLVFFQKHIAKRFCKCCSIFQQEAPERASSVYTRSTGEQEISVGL

B1: G-3-TNPO3 27-mer OVH chimera (mixed)
RNA 1: GGGAGGACGAUGCGGGCCUUCGUUUGUUUCGUCCACAGACGACUCGCCCGAUUCAAAGCCGACAUUGCAGCUCGUGUACC
RNA 2: UACACGAGCUGCAAUGUCGGCUUUG
modifications: 2'-F pyrimidines in sense strand (transcribed)
With B1, in data set [1], the half-maximal inhibitory concentration (IC50) (commonly the concentration that inhibits the measured activity by half) worked out at 23.2 nM.

B2: G-3 aptamer (ssRNA)
RNA: GGGAGGACGAUGCGGGCCUUCGUUUGUUUCGUCCACAGACGACUCGCCCGA
modifications: 2'-F pyrimidines (2'-F-C, 2'-F-U)
With B2, the IC50 in data set [2] worked out at 220 nM; in data set [3] it was 148 nM; in data set [5], 48 nM; in data set [6] it was 349 nM. In data set [4], the Kd came out at 111 nM.
